This is an account of results in PMC9352680, “A comprehensive thermodynamic model for RNA binding by the Saccharomyces cerevisiae Pumilio protein PUF4”.

A value given as a limit tells only on which side of the number the result lay.

T1: PUF4 RNA-binding domain (Saccharomyces cerevisiae, UniProt P25339 537-888)
T1 sequence: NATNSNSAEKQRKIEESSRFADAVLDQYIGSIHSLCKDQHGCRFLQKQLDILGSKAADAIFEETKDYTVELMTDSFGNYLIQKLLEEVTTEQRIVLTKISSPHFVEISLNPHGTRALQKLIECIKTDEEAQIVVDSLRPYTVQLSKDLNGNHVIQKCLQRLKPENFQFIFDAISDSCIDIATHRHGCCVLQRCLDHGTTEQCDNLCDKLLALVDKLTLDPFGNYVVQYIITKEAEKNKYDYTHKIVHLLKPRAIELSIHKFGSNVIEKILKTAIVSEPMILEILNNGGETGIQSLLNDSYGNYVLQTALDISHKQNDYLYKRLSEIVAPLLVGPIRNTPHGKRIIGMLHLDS

B1: Ic_S4_P5E.1_K5.1_C5.1_H5.1_A5.1_[T5A]_[T6C]_[A7C]_F5.1_[T8C]_[T9A]_[A10T]_T5.1 (ssRNA)
RNA: UUUGACAACUGAUCGUUCUUUCUUGUAACCCAUUUCUUUCUCGAUCAGUUGUCUUU
B2: Ic_S4_P5E.1_K5.1_C5.1_H5.1_A5.1_[T6A]_[A7C]_F5.1_[T8A]_[T9C]_[A10T]_T5.1 (ssRNA)
RNA: UUUGACAACUGAUCGUUCUUUCUUGUAUACACUUUCUUUCUCGAUCAGUUGUCUUU
B3: Ic_S4_P5E.1_K5.1_C5.1_H5.1_A5.1_[T5C]_[T6C]_F5.1_[T8G]_[A10G]_T5.1 (ssRNA)
RNA: UUUGACAACUGAUCGUUCUUUCUUGUACCAGUGUUCUUUCUCGAUCAGUUGUCUUU
B4: Ic_S4_P5E.1_K5.1_C5.1_H5.1_A5.1_[T5A]_F5.1_[T8A]_[A10T]_T5.1 (ssRNA)
RNA: UUUGACAACUGAUCGUUCUUUCUUGUAAUAAUUUUCUUUCUCGAUCAGUUGUCUUU
B5: Ic_S4_P5E.1_K5.1_C5.1_H5.1_A5.1_[T5C]_[T6C]_F5.1_[T9A]_[A10C]_T5.1 (ssRNA)
RNA: UUUGACAACUGAUCGUUCUUUCUUGUACCAUACUUCUUUCUCGAUCAGUUGUCUUU
B6: Ic_S4_P5E.1_K5.1_C5.1_H5.1_A5.1_[T5C]_[T6G]_[A7T]_F5.1_[T9A]_T5.1 (ssRNA)
RNA: UUUGACAACUGAUCGUUCUUUCUUGUACGUUAAUUCUUUCUCGAUCAGUUGUCUUU
B7: Ic_S4_P5E.1_K5.1_C5.1_H5.1_A5.1_[T6A]_[A7C]_F5.1_[T8C]_[T9C]_[A10T]_T5.1 (ssRNA)
RNA: UUUGACAACUGAUCGUUCUUUCUUGUAUACCCUUUCUUUCUCGAUCAGUUGUCUUU
B8: Ic_S4_P5E.1_K5.1_C5.1_H5.1_A5.1_[T5C]_[T6G]_[A7T]_F5.1_[T8C]_[T9A]_[A10T]_T5.1 (ssRNA)
RNA: UUUGACAACUGAUCGUUCUUUCUUGUACGUCAUUUCUUUCUCGAUCAGUUGUCUUU
B9: Ic_S4_P5E.1_K5.1_C5.1_H5.1_A5.1_[T5C]_[T6G]_[A7T]_F5.1_[T8G]_[T9G]_[A10T]_T5.1 (ssRNA)
RNA: UUUGACAACUGAUCGUUCUUUCUUGUACGUGGUUUCUUUCUCGAUCAGUUGUCUUU
B10: Ic_S4_P5E.1_K5.1_C5.1_H5.1_A5.1_[T5A]_[T6A]_[A7T]_F5.1_[T8A]_[T9A]_[A10C]_T5.1 (ssRNA)
RNA: UUUGACAACUGAUCGUUCUUUCUUGUAAAUAACUUCUUUCUCGAUCAGUUGUCUUU
B11: Ic_S4_P5E.1_K5.1_C5.1_H5.1_A5.1_[T5C]_[T6G]_[A7T]_F5.1_[T8A]_[T9A]_[A10T]_T5.1 (ssRNA)
RNA: UUUGACAACUGAUCGUUCUUUCUUGUACGUAAUUUCUUUCUCGAUCAGUUGUCUUU
B12: Ic_S4_P5E.1_K5.1_C5.1_H5.1_A5.1_[T5A]_[T6C]_[A7T]_F5.1_[T8G]_[T9C]_[A10T]_T5.1 (ssRNA)
RNA: UUUGACAACUGAUCGUUCUUUCUUGUAACUGCUUUCUUUCUCGAUCAGUUGUCUUU
B13: Ic_S4_P5E.1_K5.1_C5.1_H5.1_A5.1_[T6A]_[A7C]_F5.1_[T8G]_[T9G]_[A10T]_T5.1 (ssRNA)
RNA: UUUGACAACUGAUCGUUCUUUCUUGUAUACGGUUUCUUUCUCGAUCAGUUGUCUUU
B14: Ic_S4_P5E.1_K5.1_C5.1_H5.1_A5.1_[T5C]_[T6C]_[A7G]_F5.1_[T8G]_[T9C]_[A10C]_T5.1 (ssRNA)
RNA: UUUGACAACUGAUCGUUCUUUCUUGUACCGGCCUUCUUUCUCGAUCAGUUGUCUUU
B15: Ic_S4_P5E.1_K5.1_C5.1_H5.1_A5.1_[T5A]_[T6C]_[A7T]_F5.1_[T8C]_[T9A]_[A10T]_T5.1 (ssRNA)
RNA: UUUGACAACUGAUCGUUCUUUCUUGUAACUCAUUUCUUUCUCGAUCAGUUGUCUUU
B16: Ic_S4_P5E.1_K5.1_C5.1_H5.1_A5.1_[T6C]_[A7T]_F5.1_[T8A]_[A10C]_T5.1 (ssRNA)
RNA: UUUGACAACUGAUCGUUCUUUCUUGUAUCUAUCUUCUUUCUCGAUCAGUUGUCUUU
B17: Ic_S4_P5E.1_K5.1_C5.1_H5.1_A5.1_[T6G]_[A7C]_F5.1_[T8G]_[T9C]_[A10T]_T5.1 (ssRNA)
RNA: UUUGACAACUGAUCGUUCUUUCUUGUAUGCGCUUUCUUUCUCGAUCAGUUGUCUUU
B18: Ic_S4_P5E.1_K5.1_C5.1_H5.1_A5.1_[A7T]_F5.1_[T8C]_[T9G]_[A10T]_T5.1 (ssRNA)
RNA: UUUGACAACUGAUCGUUCUUUCUUGUAUUUCGUUUCUUUCUCGAUCAGUUGUCUUU
B19: Ic_S4_P5E.1_K5.1_C5.1_H5.1_A5.1_[T5C]_[T6G]_[A7C]_F5.1_[T8G]_[A10C]_T5.1 (ssRNA)
RNA: UUUGACAACUGAUCGUUCUUUCUUGUACGCGUCUUCUUUCUCGAUCAGUUGUCUUU
B20: Ic_S4_P5E.1_K5.1_C5.1_H5.1_A5.1_[T6G]_[A7C]_F5.1_[T8A]_T5.1 (ssRNA)
RNA: UUUGACAACUGAUCGUUCUUUCUUGUAUGCAUAUUCUUUCUCGAUCAGUUGUCUUU

The target in this data set is T1, PUF4 RNA-binding domain. In words: Mg; RNA-MaP; 20 mM Na-HEPES pH 7.4, 30 mM KOAc, 0.75 mM MgCl2, 0.1% Tween-20, 5% glycerol, 0.1 mg/mL BSA, 2 mM DTT; 25 C; 0.0125-409.6 nM protein. The conditions noted are these: tags: N-His6-TEV cleaved; C-SNAP kept, Cy3B-labelled; label: tethered on chip by stalled RNA polymerase.
Broadly, the Kd is a measure of binding affinity in units of concentration. Regarding B1, the Kd came out at 531 nM.

B2 displayed a Kd of 75.1 nM.

Consider B3, for which the Kd was 124 nM.

In turn, B4 came in with a Kd of 95.2 nM.

Molecule B5 came in with a Kd of 2.7 nM.

B6: binding was put at a Kd of 4.22 nM.

Consider B7, for which binding was characterised by a dissociation constant (Kd) of 36.1 nM.

B8 showed a Kd of 98.8 nM.

Take B9: the Kd amounted to 195 nM.

Take B10: the Kd came to 26.6 nM.

B11: binding was characterised by a dissociation constant (Kd) of 67.6 nM.

Regarding B12, binding was characterised by a dissociation constant (Kd) of 304 nM.

Molecule B13 yielded a Kd of 510 nM.

Consider B14, for which the Kd is over 2300 nM.

B15 showed a Kd of 325 nM.

Turning to B16, the affinity, expressed as Kd, was 13.6 nM.

B17: binding was characterised by a dissociation constant (Kd) of 542 nM.

B18 gave a Kd of 62.1 nM.

As for B19, the Kd is over 2300 nM.

For the molecule B20, the Kd worked out at 14.1 nM.

Turning to UCUCUUUGUACAUUAUCUCUU (ssRNA) [Ic_S1_P4E.1_K4.1_C4.1_H4.1_A4.1_[T5C]_F4.1_T4.1], the affinity, expressed as Kd, was 0.601 nM.

The molecule UCUCUUUGUAUCUUCUCUCUU (ssRNA) [Ib_S1_P4E.1_K4.1_C4.1_H4.1_A4.1_[A6C]_F4.1_[A9C]_T4.1] registered a Kd of 92.5 nM.

For the molecule UCUCUUUGUAUUUUGUCUCUU (ssRNA) [Ic_S1_P4E.1_K4.1_C4.1_H4.1_A4.1_[A6T]_F4.1_[A9G]_T4.1], the affinity, expressed as Kd, was 15.2 nM.
